From PMC5737367

Molecular target: Rif1 1709-1916 (UniProt P29539)
Experiment: GST pull-down from yeast lysate
Details: reference: wild type; sites S731

binding against the reference: weaker
Substance: Rap1 (from UniProt P11938) S731A
